Assay results reported in patent publication US20240390512A1, “METHODS OF TREATING CHEMOTHERAPY-RESISTANT CANCER WITH AN ANTIBODY-DRUG CONJUGATE” (DAIICHI SANKYO COMPANY, LIMITED, priority 2021, published 2024).

T1: human CDH6 (full-length and EC domain deletion mutants) (Homo sapiens, UniProt P55285, DEL269-383)
T1 construct: each one of the five EC domains could be deleted from full-length human CDH6; 3xFLAG (deletion mutants only, from the vector p3×FLAG-CMV-9); expressed in transfected cells; host or cells: 293α cells
T1 sequence (P55285 with tags, fused parts or gaps DEL269-383): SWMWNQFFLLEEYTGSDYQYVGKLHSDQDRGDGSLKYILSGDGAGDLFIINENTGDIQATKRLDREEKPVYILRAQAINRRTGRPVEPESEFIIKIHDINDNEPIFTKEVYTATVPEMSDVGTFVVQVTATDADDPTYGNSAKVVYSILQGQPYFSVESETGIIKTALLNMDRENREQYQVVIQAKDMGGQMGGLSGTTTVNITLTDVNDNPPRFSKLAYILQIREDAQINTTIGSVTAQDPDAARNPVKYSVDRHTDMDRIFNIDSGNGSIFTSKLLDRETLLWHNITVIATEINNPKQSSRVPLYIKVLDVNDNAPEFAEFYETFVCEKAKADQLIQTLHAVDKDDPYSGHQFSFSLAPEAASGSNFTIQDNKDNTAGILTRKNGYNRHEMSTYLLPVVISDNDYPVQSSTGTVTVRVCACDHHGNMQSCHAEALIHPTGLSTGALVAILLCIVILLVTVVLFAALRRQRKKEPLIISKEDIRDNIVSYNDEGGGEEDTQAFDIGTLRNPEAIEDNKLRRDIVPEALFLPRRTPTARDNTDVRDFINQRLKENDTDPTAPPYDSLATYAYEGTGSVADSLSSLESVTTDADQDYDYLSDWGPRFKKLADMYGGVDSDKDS

T2: human CDH6 (full-length and EC domain deletion mutants) (Homo sapiens, UniProt P55285, DEL384-486)
T2 construct: each one of the five EC domains could be deleted from full-length human CDH6; 3xFLAG (deletion mutants only, from the vector p3×FLAG-CMV-9); expressed in transfected cells; host or cells: 293α cells
T2 sequence (P55285 with tags, fused parts or gaps DEL384-486): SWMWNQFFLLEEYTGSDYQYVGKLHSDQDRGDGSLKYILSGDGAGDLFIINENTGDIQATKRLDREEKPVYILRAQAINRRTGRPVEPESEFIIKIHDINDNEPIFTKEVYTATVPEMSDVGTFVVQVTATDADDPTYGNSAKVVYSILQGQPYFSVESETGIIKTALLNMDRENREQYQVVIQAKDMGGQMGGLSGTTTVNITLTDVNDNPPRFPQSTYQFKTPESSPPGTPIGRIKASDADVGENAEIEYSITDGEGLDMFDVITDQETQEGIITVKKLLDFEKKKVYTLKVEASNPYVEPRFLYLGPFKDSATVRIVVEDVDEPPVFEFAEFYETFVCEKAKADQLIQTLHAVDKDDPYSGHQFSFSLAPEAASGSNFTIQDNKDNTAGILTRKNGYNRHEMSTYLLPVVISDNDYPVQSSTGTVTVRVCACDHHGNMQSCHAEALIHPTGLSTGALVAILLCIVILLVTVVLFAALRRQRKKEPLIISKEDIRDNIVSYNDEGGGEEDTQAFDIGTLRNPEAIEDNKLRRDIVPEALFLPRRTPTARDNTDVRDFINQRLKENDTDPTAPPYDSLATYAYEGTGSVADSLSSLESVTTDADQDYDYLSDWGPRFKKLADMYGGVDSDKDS

B1: rG055: rat anti-human CDH6 monoclonal antibody produced by hybridoma rG055; variable regions SEQ ID NO: 20 and 25 (antibody, listed as Rattus norvegicus, V domains shown)
VL: DVQMTHSPSYLAASPGESVSISCKTSKNISNYLVWYQQKPGEAYKLLIYSGSTLQSGTPSRFSGSGSGTDFTLTIRSLEPEDFGLYFCQQYYEKPFTFGSGTKLEIKRA
VH: EVQLQESGPGLVRPSQSLSLSCSVTDYSITSNYWGWIRRFPGNKMEWMGYITYSGYTSYNPSLQSRISITRDTSKNQFFLQLNSVTAEDTATYYCARSINHGGYSYVVDAWGPGASVTVSS
B2: rG061: rat anti-human CDH6 monoclonal antibody produced by hybridoma rG061; variable regions SEQ ID NO: 40 and 45 (antibody, listed as Rattus norvegicus, V domains shown)
VL: DVQMTQSPSYLAASPGESVSISCKATKSISNYLAWYQQKPGEAYKVLIYSGSTLQSGTPSRFSGSGSGTDFTLTIRSLEPEDFGLYSCQQYYEKPLTFGSGTKLEIKRA
VH: EVQLQESGPGLVKPSQSLSLTCSVTGYSITTYYWGWIRKFPGNKMEWMGYISYSGRTSYNPSLKSRMSITRDASKNQFFLQLNSVTTDDTATYYCARSPINHGGYWYFDFWGPGTMVTVSS
B3: rG019: rat anti-human CDH6 monoclonal antibody produced by hybridoma rG019; variable regions SEQ ID NO: 10 and 15 (antibody, listed as Rattus norvegicus, V domains shown)
VL: DIQMTQSPSLLSASVGDRVTLNCKASQNIYKNLAWYQQKLGEGPKLLIYDANTLQTGIPSRFSGSGSGSDFTLTISSLQPEDVATYFCQQYYSGWAFGGVTNLELKRA
VH: QVQLQQSGAELVKPGSSVKISCKASGYTFTRNFMHWIKQQPGNGLEWIGWIYCGDGETEYNQKFNGKATLTADRSSSTAYMELSRLTSEDSAVYFCARGVYGGFAGGYFDFWGQGVMVTVSS
B4: rG056: rat anti-human CDH6 monoclonal antibody produced by hybridoma rG056; variable regions SEQ ID NO: 30 and 35 (antibody, listed as Rattus norvegicus, V domains shown)
VL: DVQMTQSPSSLAASPGESVSISCRATKSIGIYLAWYQQKPGKTFKLLIYSGSTLQSGTPSRFSGSGSGTDFTLTIRSLEPEDFGLYFCQQFYENPFTFGSGTKLEIRRA
VH: EVQLQESGPGLVKPSQSLSLTCSVTDYSITTYFWGWIRKFPGNKMEWMGYMSYRGGTSYNPSLKSRISITRDTSKNQFFLQLNSVTTEDTATYYCARCPNYGGHSLVFDYWGQGVMVTVSS

Tests used:
[1] = biological target: T1, human CDH6 (full-length and EC domain deletion mutants); test: Epitope analysis of rat anti-CDH6 antibody by flow cytometry using domain deletion mutants; type: binding; details: flow cytometry; transfected 293α cells; antibody 20 nM
Excerpt: (§1) The full-length extracellular region of human CDH6 has five extracellular domains, EC1 (SEQ ID NO: 2), EC2 (SEQ ID NO: 3), EC3 (SEQ ID NO: 4), EC4 (SEQ ID NO: 5), and EC5 (SEQ ID NO: 6). A gene to be expressed such that each one of the five EC domains could be deleted from full-length human CDH6 was synthesized by GeneArt, and incorporated into p3×FLAG-CMV-9 vectors for mammalian expression (Sigma-Aldrich Co. LLC) according to a method known to a person skilled in the art in order to produce an expression vector for each domain deletion mutant lacking any one of EC1 to EC5.
(§2) The epitopes to which the rat anti-human CDH6 antibodies bound were identified by flow cytometry analysis using a 293α cell line transfected with each EC domain deletion vector. Using Lipofectamine 2000 (Thermo Fisher Scientific Inc.), each domain deletion mutant expression vector produced in Reference Example 2)-2-1, or pcDNA3.1-hCDH6 for the expression of full-length human CDH6 was transiently introduced into a 293α cell line, which was a cell line derived from HEK293 cells by stable transfection with integrin αv and integrin […] expression vectors. The cells were cultured overnight under conditions of 37° C. and 5% CO2, and thereafter, a cell suspension was prepared. The suspension of the transfected 293α cells was centrifuged, and a supernatant was then removed. Thereafter, the cells were suspended by the addition of each of the 4 rat anti-CDH6 monoclonal antibodies (clone Nos: rG019, rG055, rG056 and rG061), which had been prepared in Reference Example 1)-7, or rat IgG control (R&D Systems, Inc.) (final concentration: 20 nM). The cells were left standing at 4° C. for 1 hour. The cells were washed twice with PBS supplemented with 5% FBS, and then suspended by the addition of Anti-Rat IgG (whole molecule)-FITC antibody produced in rabbit (Sigma-Aldrich Co. LLC) that had been 50-fold diluted with PBS supplemented with 5% FBS. The cells were left standing at 4° C. for 1 hour. The cells were washed twice with PBS supplemented with 5% FBS, followed by detection using a flow cytometer (Canto II; BD Biosciences). The data was analyzed using FlowJo (Tree Star, Inc.). In the histograms of FIGS. 2-1 to 2-6, the abscissa depicts FITC fluorescence intensity indicating the amount of the antibody bound, and the ordinate depicts cell count. […] Fluorescence intensity is enhanced when the antibody binds to full-length hCDH6 or each EC domain deletion mutant on the surface of cells. The rat IgG control binds to none of the transfected cells.

[2] = biological target: T2, human CDH6 (full-length and EC domain deletion mutants); test: as above; type: binding; details: flow cytometry; transfected 293α cells; antibody 20 nM
Excerpt: as §1, §2

Row | Molecule | binding to EC3 deletion mutant [1] | binding to EC4 deletion mutant [2]
1 | B1 | do not bind | bind
2 | B2 | do not bind | bind
3 | B3 | do not bind | bind
4 | B4 | do not bind | bind
